Results published in US20100043097.

Key:
[1] = molecular target: GST tagged BRK1-S230A
[2] = molecular target: GST-BRK1
GST-BRK1, sequence (chain, as listed by the source): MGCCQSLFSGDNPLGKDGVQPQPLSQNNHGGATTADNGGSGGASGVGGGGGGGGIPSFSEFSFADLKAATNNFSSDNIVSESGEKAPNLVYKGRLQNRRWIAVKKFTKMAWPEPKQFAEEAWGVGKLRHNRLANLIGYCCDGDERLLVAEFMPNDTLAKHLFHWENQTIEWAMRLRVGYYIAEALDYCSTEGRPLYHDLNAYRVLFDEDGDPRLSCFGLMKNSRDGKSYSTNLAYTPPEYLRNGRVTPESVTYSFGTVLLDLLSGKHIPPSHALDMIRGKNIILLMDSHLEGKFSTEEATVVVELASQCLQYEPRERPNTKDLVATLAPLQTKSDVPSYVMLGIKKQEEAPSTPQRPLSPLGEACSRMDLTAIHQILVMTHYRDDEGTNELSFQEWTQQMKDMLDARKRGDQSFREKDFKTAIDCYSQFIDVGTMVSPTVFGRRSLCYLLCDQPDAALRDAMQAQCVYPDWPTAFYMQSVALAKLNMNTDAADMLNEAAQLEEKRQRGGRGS

B1: GST-BRI1-KD (protein)
chain: REMRKRRRKKEAELEMYAEGHGNSGDRTANNTNWKLTGVKEALSINLAAFEKPLRKLTFADLLQATNGFHNDSLIGSGGFGDVYKAILKDGSAVAIKKLIHVSGQGDREFMAEMETIGKIKHRNLVPLLGYCKVGDERLLVYEFMKYGSLEDVLHDPKKAGVKLNWSTRRKIAIGSARGLAFLHHNCSPHIIHRDMKSSNVLLDENLEARVSDFGMARLMSAMDTHLSVSTLAGTPGYVPPEYYQSFRCSTKGDVYSYGVVLLELLTGKRPTDSPDFGDNNLVGWVKQHAKLRISDVFDPELMKEDPALEIELLQHLKVAVACLDDRAWRRPTMVQVMAMFKEIQAGSGIDSQSTIRSIEDGGFSTIEMVDMSIKEVPEGKL
**Q.** How did the “in vitro kinase assay (32P autoradiography), reduction of phosphorylation” value [1] turn out when B1 was run?
**A.** a S230A mutation reduced the phosphorylation by 82%

**Q.** What about the “mass spectrometry of BRI1-phosphorylated BRK1” value [2] of the same protein?
**A.** identified serine 230 of BRK1 as a BRI1 phosphorylation site
